Assay results reported in PMC11555115.

Columns and labels:
[1] = target: Sm-di-ubiquitin (GA mutant) (UniProt P0CG48); assay: NanoBiT assay in HEK293T cells; conditions: 1 h, transient transfection, cultured 24 h, read off a plot, scale: relative luminescent intensity
[2] = target: His-tagged linear tetra-ubiquitin chains (TR-FRET with SHARPIN NZF) (UniProt P0CG48); assay: TR-FRET assay; conditions: DMSO; mixed and incubated for 1 h; parent: 100; read off a plot; scale: relative fluorescence intensity

Row | percent of parent ([1]; DMSO, parent: 100) | response ([1]; FSL0717 10 μM, parent: est. 60) | response ([1]; FSL0720 10 μM, parent: est. 50) | percent of parent [2] | Substance
1 | 52 | 37 | 43 |  | Lg-HOIL-1L NZF WT (from UniProt Q9WUB0) TR-AA
2 |  |  |  | 38 | GST-tagged SHARPIN NZF T351A; F352A
